Measurements as given in patent US20070020327A1.

B1: PAP 49 … (peptide)
peptide: PIDTFPTDPI
modifications: not checked
B2: Kallikrein 216 PLVGNGVL (peptide)
peptide: PLVCNGVL
modifications: not checked
B3: PAP 84 peptide … (peptide)
peptide: YIRKRYRKFL
modifications: not checked
B4: PAP 147 … (peptide)
peptide: PLSEDQLLYL
modifications: not checked
B5: PSM 468 … (peptide)
peptide: PLMYSLVHNL
modifications: not checked
B6: PSM 296 … (peptide)
peptide: PIGYYDAQKL
modifications: not checked
B7: PSM 568 … (peptide)
peptide: PMFKYHLTVA
modifications: not checked
B8: PSA 212 PLVGNGVL (peptide)
peptide: PLVCNGVL
modifications: not checked
B9: Kallikrein 216 … (peptide)
peptide: PLVCNGVLQGI
modifications: not checked
B10: PSA 212 … (peptide)
peptide: PLVCNGVLQGI
modifications: not checked
B11: PSM 179 peptide … (peptide)
peptide: YARTEDFFKL
modifications: not checked
B12: PSM 231 … (peptide)
peptide: PADYFAPGV
modifications: not checked
B13: PSA 95 PLYDMSLL (peptide)
peptide: PLYDMSLL
modifications: not checked
B14: PSA 15 PLILSRIV (peptide)
peptide: PLILSRIV
modifications: not checked
B15: PAP 140 … (peptide)
peptide: PIPVHTVPL
modifications: not checked
B16: PSM 550 … (peptide)
peptide: PLYHSVYET
modifications: not checked
B17: PAP 352 … (peptide)
peptide: PLERFAELV
modifications: not checked
B18: PSA 125 … (peptide)
peptide: PAELTDAVKV
modifications: not checked
B19: PSM 357 … (peptide)
peptide: NVIGTLRGAV
modifications: not checked
B20: peptide 1419.13 (PSA.116.V11 / HuK2.120.V11) (peptide)
peptide: DLMLLRLSEPV
modifications: not checked
B21: … (Kallikrein, position 191, 11 amino acids) (peptide)
peptide: KVTEFMLCAGL
modifications: not checked
B22: … (Kallikrein, position 245, 9 amino acids) (peptide)
peptide: KVVHYRKWI
modifications: not checked
B23: PSM peptide … (position 129, 10 amino acids) (peptide)
peptide: SIINEDGNEI
modifications: not checked
B24: … (PSM, position 4, 10 amino acids) (peptide)
peptide: LLHETDSAVA
modifications: not checked
B25: LLRLSEPA (Kallikrein, position 123, 8 amino acids) (peptide)
peptide: LLRLSEPA
modifications: not checked
B26: … (PSM, position 219, 9 amino acids) (peptide)
peptide: LAGAKGVIL
modifications: not checked
B27: … (PSM, position 83, 10 amino acids) (peptide)
peptide: LAGTEQNFQL
modifications: not checked
B28: PSM peptide … (position 338, 9 amino acids) (peptide)
peptide: STQKVKMHI
modifications: not checked
B29: PAP peptide … (position 13, 9 amino acids) (peptide)
peptide: SLSLGFLFL
modifications: not checked
B30: PSM peptide … (position 107, 9 amino acids) (peptide)
peptide: SVELAHYDV
modifications: not checked
B31: PSM peptide … (position 615, 10 amino acids) (peptide)
peptide: SMKHPQEMKT
modifications: not checked
B32: PSA peptide SVTWIGAA (position 7, 8 amino acids) (peptide)
peptide: SVTWIGAA
modifications: not checked
B33: … (PSA, position 241, 9 amino acids) (peptide)
peptide: KVVHYRKWI
modifications: not checked
B34: LLRLSEPA (PSA, position 119, 8 amino acids) (peptide)
peptide: LLRLSEPA
modifications: not checked
B35: … (PSA, position 187, 9 amino acids) (peptide)
peptide: KVTKFMLCA
modifications: not checked
B36: PSM peptide … (position 631, 10 amino acids) (peptide)
peptide: SLFSAVKNFT
modifications: not checked
B37: … (PSM, position 305, 9 amino acids) (peptide)
peptide: LLEKMGGSA
modifications: not checked
B38: PSA peptide … (position 67, 10 amino acids) (peptide)
peptide: SVILLGRHSL
modifications: not checked
B39: PSM peptide … (position 107, 10 amino acids) (peptide)
peptide: SVELAHYDVL
modifications: not checked
B40: PSA peptide SLLKNRFL (position 100, 8 amino acids) (peptide)
peptide: SLLKNRFL
modifications: not checked
B41: … (PAP, position 8, 9 amino acids) (peptide)
peptide: LARAASLSL
modifications: not checked
B42: … (PAP, position 31, 10 amino acids) (peptide)
peptide: LAKELKFVTL
modifications: not checked
B43: PSM peptide … (position 472, 10 amino acids) (peptide)
peptide: SLVHNLTKEL
modifications: not checked
B44: … (PSA, position 119, 10 amino acids) (peptide)
peptide: LLRLSEPAEL
modifications: not checked
B45: … (PSA, position 55, 9 amino acids) (peptide)
peptide: WVLTAAHCI
modifications: not checked
B46: … (Kallikrein, position 192, 10 amino acids) (peptide)
peptide: VTEFMLCAGL
modifications: not checked
B47: PSM peptide … (position 391) (peptide)
peptide: GAAVVHEIV
modifications: not checked
B48: PSM peptide … (position 364) (peptide)
peptide: GAVEPDRYVI
modifications: not checked
B49: … (PSA, position 8, 9 amino acids) (peptide)
peptide: VTWIGAAPL
modifications: not checked
B50: … (PSA, position 1, 9 amino acids) (peptide)
peptide: VVFLTLSVT
modifications: not checked
B51: … (PAP, position 226, 10 amino acids) (peptide)
peptide: WATEDTMTKL
modifications: not checked
B52: … (PSA, position 8, 10 amino acids) (peptide)
peptide: VTWIGAAPLI
modifications: not checked
B53: … (PSA, position 10, 9 amino acids) (peptide)
peptide: WIGAAPLIL
modifications: not checked
B54: PSM peptide … (position 364) (peptide)
peptide: GAVEPDRYV
modifications: not checked
B55: … (Kallikrein, position 47, 9 amino acids) (peptide)
peptide: WAHCGGVLV
modifications: not checked
B56: PSM peptide … (position 737) (peptide)
peptide: FTVQAAAETL
modifications: not checked
B57: VVFLTLSV (PSA, position 1, 8 amino acids) (peptide)
peptide: VVFLTLSV
modifications: not checked
B58: PSA peptide … (position 221) (peptide)
peptide: GITSWGSEPCA
modifications: not checked
B59: PSM peptide … (position 385) (peptide)
peptide: GIDPQSGAAV
modifications: not checked
B60: PAP peptide … (position 204) (peptide)
peptide: GIWSKVYDPL
modifications: not checked
B61: WIKDTIVA (PSA, position 248, 8 amino acids) (peptide)
peptide: WIKDTIVA
modifications: not checked
B62: … (PSM, position 602, 10 amino acids) (peptide)
peptide: VVLRKYADKI
modifications: not checked
B63: WIGAAPLI (PSA, position 10, 8 amino acids) (peptide)
peptide: WIGAAPLI
modifications: not checked
B64: PSA peptide … (position 12) (peptide)
peptide: GAAPLILSRI
modifications: not checked
B65: … (PSM, position 434, 9 amino acids) (peptide)
peptide: WAEENSRLL
modifications: not checked
B66: VLVHPQWV (Kallikrein, position 53) (peptide)
peptide: VLVHPQWV
modifications: not checked
B67: … (PSA, position 36) (peptide)
peptide: VLVASRGRAV
modifications: not checked
B68: … (Kallikrein, position 5) (peptide)
peptide: VLSIALSVGCT
modifications: not checked
B69: … (PSA, position 36) (peptide)
peptide: VLVASRGRA
modifications: not checked
B70: VLTAAHCI (PSA, position 56) (peptide)
peptide: VLTAAHCI
modifications: not checked

target: HLA-A*0201 (human); experiment: competition with 125I-labelled standard peptide for purified HLA, gel filtration; settings: not given

Compared with B1, B2 is lower in binding affinity ratio (IC50 of standard peptide / IC50 of test peptide): 0.0002 for the first, 0.0001 for the second.

Compared with B4, B5 is higher in binding affinity ratio (IC50 of standard peptide / IC50 of test peptide): 0.0006 for the first, 0.0008 for the second.

Compared with B6, B7 is higher in binding affinity ratio (IC50 of standard peptide / IC50 of test peptide): 0.0001 for the first, 0.0005 for the second.

First: B8
Second: B9
The binding affinity ratio (IC50 of standard peptide / IC50 of test peptide) of the first is lower: 0.0001 for the first, 0.002 for the second.

First: B10
Second: B12
The binding affinity ratio (IC50 of standard peptide / IC50 of test peptide) of the first is higher: 0.002 for the first, 0.0001 for the second.

Going from B13 to B14, the binding affinity ratio (IC50 of standard peptide / IC50 of test peptide) falls from 0.0002 to 0.0001.

B15 and B16 are the same in binding affinity ratio (IC50 of standard peptide / IC50 of test peptide): 0.0002 for the first, 0.0002 for the second.

Compared with B17, B18 is higher in binding affinity ratio (IC50 of standard peptide / IC50 of test peptide): 0.0001 for the first, 0.0002 for the second.

With B19 the binding affinity ratio (IC50 of standard peptide / IC50 of test peptide) was 0.0001.

B3 and B11 are the same in binding affinity ratio (IC50 of the standard peptide / IC50 of the test peptide): 0.0002 for the first, 0.0002 for the second.

same assay, conditions: remark: other sources report otherwise

B20 gave an IC50 of 50 nM.

same assay, conditions: remark: other sources report otherwise; scale: ratio

Work on B21 yielded a binding affinity ratio of 0.001.

same assay, conditions: scale: ratio

B22 and B23 are the same in binding affinity ratio: 0.0001 for the first, 0.0001 for the second.

Going from B24 to B25, the binding affinity ratio falls from 0.0006 to 0.0001.

Going from B26 to B27, the binding affinity ratio falls from 0.0002 to 0.0001.

Going from B28 to B29, the binding affinity ratio rises from 0.0001 to 0.02.

B30 and B31 are the same in binding affinity ratio: 0.0001 for the first, 0.0001 for the second.

B32 and B33 are the same in binding affinity ratio: 0.0001 for the first, 0.0001 for the second.

Compared with B34, B35 is higher in binding affinity ratio: 0.0001 for the first, 0.002 for the second.

First: B36
Second: B37
The binding affinity ratio of the first is higher: 0.001 for the first, 0.0001 for the second.

Going from B38 to B39, the binding affinity ratio rises from 0.0001 to 0.0002.

Compared with B40, B41 is lower in binding affinity ratio: 0.002 for the first, 0.0002 for the second.

B42 and B43 are the same in binding affinity ratio: 0.0002 for the first, 0.0002 for the second.

For B44, the binding affinity ratio was 0.0001.

target: HLA-A*0201 (human); experiment: competition with 125I-labelled standard peptide 941.01 for purified HLA, gel filtration; settings: remark: other sources report otherwise; scale: ratio

B45 and B46 are the same in binding affinity ratio: 0.0008 for the first, 0.0008 for the second.

same assay, conditions: scale: ratio

B47 and B48 are the same in binding affinity ratio: 0.0002 for the first, 0.0002 for the second.

Compared with B49, B50 is lower in binding affinity ratio: 0.011 for the first, 0.0008 for the second.

Compared with B51, B52 is higher in binding affinity ratio: 0.0002 for the first, 0.0019 for the second.

First: B53
Second: B54
The binding affinity ratio of the first is higher: 0.0005 for the first, 0.0001 for the second.

Going from B55 to B56, the binding affinity ratio rises from -0.0001 to 0.0001.

Going from B57 to B58, the binding affinity ratio falls from 0.0002 to 0.0001.

B59 and B60 are the same in binding affinity ratio: 0.0002 for the first, 0.0002 for the second.

B61 and B62 are the same in binding affinity ratio: 0.0001 for the first, 0.0001 for the second.

B63 and B64 are the same in binding affinity ratio: 0.0005 for the first, 0.0005 for the second.

B65 showed a binding affinity ratio of 0.0001.

target: HLA-A*0201 (human); experiment: competitive inhibition of 125I-labelled standard peptide binding to purified HLA, gel filtration; ratio = IC50 standard / IC50 test peptide; settings: not given

First: B66
Second: B67
The binding affinity ratio of the first is lower: 0.0001 for the first, 0.0003 for the second.

First: B68
Second: B69
The binding affinity ratio of the first is higher: 0.0002 for the first, 0.0001 for the second.

For B70, the binding affinity ratio was 0.0001.
